# From US8273357B2, “Antigen-carbohydrate conjugates” (Massachusetts Institute of Technology, priority 2004, dated 2012)
# “And” between values parts separate entries of the source, which are not always exact repeats. Equal values may be shown once. “Also recorded” adds a separate entry of the source.
# B1: (OVA)-3-1: ovalbumin modified via SMCC with nonasaccharide 3-1, average of three saccharides per OVA (conjugate)
# chain: GSIGAASMEFCFDVFKELKVHHANENIFYCPIAIMSALAMVYLGAKDSTRTQINKVVRFDKLPGFGDSIEAQCGTSVNVHSSLRDILNQITKPNDVYSFSLASRLYAEERYPILPEYLQCVKELYRGGLEPINFQTAADQARELINSWVESQTNGIIRNVLQPSSVDSQTAMVLVNAIVFKGLWEKAFKDEDTQAMPFRVTEQESKPVQMMYQIGLFRVASMASEKMKILELPFASGTMSMLVLLPDEVSGLEQLESIINFEKLTEWTSSNVMEERKIKVYLPRMKMEEKYNLTSVLMAMGITDVFSSSANLSGISSAESLKISQAVHAAHAEINEAGREVVGSAEAGVDAASVSEEFRADHPFLFCIKHIATNAVLFFGRCVSP
# B2: ovalbumin (protein, UniProt P01012 2-386, looked up)
# Ovalbumin: GSIGAASMEFCFDVFKELKVHHANENIFYCPIAIMSALAMVYLGAKDSTRTQINKVVRFDKLPGFGDSIEAQCGTSVNVHSSLRDILNQITKPNDVYSFSLASRLYAEERYPILPEYLQCVKELYRGGLEPINFQTAADQARELINSWVESQTNGIIRNVLQPSSVDSQTAMVLVNAIVFKGLWEKAFKDEDTQAMPFRVTEQESKPVQMMYQIGLFRVASMASEKMKILELPFASGTMSMLVLLPDEVSGLEQLESIINFEKLTEWTSSNVMEERKIKVYLPRMKMEEKYNLTSVLMAMGITDVFSSSANLSGISSAESLKISQAVHAAHAEINEAGREVVGSAEAGVDAASVSEEFRADHPFLFCIKHIATNAVLFFGRCVSP
# notes: model antigen, unmodified
# Legend:
# OTII T cells = assay: Adoptive transfer of CFSE-labeled OTII cells, immunization with CFA or mBSA, cell number and CFSE dilution; format: in vivo, mouse; conditions: for T cells that had undergone cell division: antigen 50 ng ± mBSA 50 μg subcutaneous, CFSE
# Experimental: FIGS. 7A and 7B are a series of dot plots showing that inflammatory stimuli dampen the effects of DC targeting by (OVA)-3-1. FIG. 7A includes two dot plots showing the 5-(6)-carboxyfluorescein diacetate succinimidyl ester (CFSE), a cell-permeable dye, intensity present in a population of cells. 2×10^7 CFSE-labeled OTII splenocytes were adoptively transferred to B6.Ly5.2/Cr recipients and the mice were immunized subcutaneously with OVA (200 ng) or (OVA)-3-1 (200 ng) emulsified in Complete Freund's Adjuvant. At seventy-two hours post immunization the draining inguinal lymph nodes were isolated and the expansion of CD45.2^+Vα2^+ was evaluated for CFSE dilution by flow cytometry. 4×10^5 total counts were collected. The plots display the CFSE intensity associated with the gated population of Vα2^+CD45.2^+ donor cells. The numbers indicate the percentage of CFSE high (undivided; R3 gate) and CFSE low (divided; R4 gate) OTII T cells. FIG. 7B is a series of five dot plots showing the enhancement in T cell proliferation promoted by neoglycoprotein mBSA. CFSE-labeled OTII splenocytes were adoptively transferred as in (A) and mice were immunized subcutaneously with mBSA (50 μg); OVA (50 ng); (OVA)-3-1 (50 ng); OVA (50 ng)+mBSA (50 μg) or (OVA)-3-1 (50 ng)+mBSA (50 μg). At 3 days the mice were sacrificed and isolated cells were analyzed as described in (A). Both FIGS. 7A and 7B are results from one of two separate experiments.
# These cytokines aid in the recruitment and activation of monocytes and dendritic cells at the site of administration, thereby promoting a heightened immune response. […] Prior to transferring the CD45.2 OTII T cells to the B6.Ly5.2/Cr recipients, the cells were stained with 5-(6)-carboxyfluorescein diacetate succinimidyl ester (CFSE), a cell-permeable dye that freely crosses the cell membrane; once inside the cell, however, cellular esterases hydrolyze the CFSE's ester functional groups to generate a negatively charged molecule that cannot cross back across the cell membrane. This dye is used to monitor cell division by flow cytometry as each successive cell division leads to a dilution of CFSE among the daughter cells.
# To administer pro-inflammatory stimuli at the same time as soluble antigen, OVA and (OVA)-3-1 were emulsified in Complete Freund's Adjuvant (CFA) prior to immunization. CFA is an oil-based mixture of mycobacterial cell wall components that is known to induce strong TH1 T cell responses^2. Seventy-two hours after immunization, cells from the draining lymph nodes were isolated and analyzed by flow cytometry for cell number and divisions (FIG. 7A). […] In fact, the enhancement previously observed relative to soluble OVA (FIG. 6B) was largely diminished. […] Without being tied to one particular theory, one potential reason for this observation could be that dendritic cells targeted with (OVA)-3-1 produced more peptide-MHC class II complexes than those targeted by OVA as receptor-mediated endocytosis delivered more antigen to the cell before full maturation was reached^10.
# Since most lectins have weak affinities for monosaccharides, these experiments were repeated with BSA that was modified with approximately 25 mannose residues per protein molecule (mBSA). […] Mice that had received CFSE-labeled OTH T cells were immunized with mBSA, OVA, (OVA)-3-1, OVA plus mBSA, or (OVA)-3-1 plus mBSA and their T cell responses were analyzed at seventy-two hours (FIG. 7B). […]
# [1] = system: CD11c+ dendritic cells / OTII T cells; assay: Antigen presentation assay, purified CD11c+ dendritic cells and purified OTII T cells; format: cell-based, mouse
# Experimental: FIGS. 4A, 4B, 4C and 4D are graphs showing that CD11c^+ dendritic cells are the main antigen presenting cells presenting 3-1-targeted antigen. […] 1.5×10^4 Splenic CD11c^+ dendritic cells purified from C57BL/6 mice and 3.0×10^4 purified OTII T cells were incubated with OVA (starting concentration 300 μg mL^−1) or (OVA)-3-1 (starting concentration 25 μg mL^−1) in graded doses for eight-four hours with [^3H]thymidine (1 μCi) added for the last twelve hours. […] Purified CD11c^+ dendritic cells and OTII T cells were incubated with (OVA)-3-1 (25 μg mL^−1)±each potential inhibitor (100 μg mL^−1). T cell proliferation was determined as for FIG. 4A. […] CD11c^+ dendritic cells and OTII T cells were incubated with OVA or (OVA)-3-1±lipopolysaccharide ([…]). Also included are all ‘non-dendritic cells’ (macrophages and B cells) obtained during the purification of the dendritic cells. T cell proliferation was determined as described in FIG. 4A. […] Supernatants from cells described in FIG. 4C were collected at forty-eight and seventy-two hours and measured for IFN-γ by ELISA; the values presented are from the seventy-two hour time point. All measurements here were performed in triplicate.
# To confirm that the increased T cell proliferation observed with (OVA)-3-1 was due to the selective uptake of this conjugate by dendritic cells and not B cells or macrophages, purified CD11c^+ dendritic cells were prepared from wild-type C57BL/6 mice and the OVA-specific T cells from transgenic OTII mice (see Materials & Methods). The in vitro antigen presentation assays described above were then repeated. […] By comparison, >50-fold more unmodified OVA was required to obtain similar levels of T cell proliferation. When B cells and macrophages were used as antigen-presenting cells in place of purified dendritic cells, the resulting T cell responses were negligible (FIG. 4C), providing strong confirmation that CD11c^+ dendritic cells are the main antigen-presenting cells mediating uptake and presentation of (OVA)-3-1 to OTII T cells.
# Pooled inguinal lymph nodes were dissociated in 10% Fetal Bovine Serum RPMI (supplemented with 2 mM L-glutamine) and either mechanically dissociated between two glass slides or, to improve the overall cell yield, incubated in the presence of collagenase (Boehringer) and EDTA for 25 minutes at 37° C./5% CO2 to dissociate DC-T cell clusters. For antigen presentation assays with whole splenocytes, isolated spleens were injected with collagenase/EDTA, gently teased apart and incubated as described above. Splenocytes were cultured in 96-well round-bottom plates at a density of 3×10^5 cells/0.2 mL. In antigen presentation assays utilizing purified dendritic cells and T cells, dendritic cells were isolated from the spleens of C57BL/6 mice following collagenase/EDTA treatment by labeling the dendritic cells with commercially available magnetic microbeads linked to an anti-CD11c^+ antibody (Miltenyi Biotec, Bergisch Gladbach, Germany) (according to the Miltenyi Biotec protocol) and separating labeled Dendritic cells from non-dendritic cells by application of a magnetic field. Similarly, purified […] T cells were obtained from spleens of OTII transgenic mice using magnetic beads Dynal (Oslo, Norway). Purified dendritic cells and T cells were seeded onto 96-well plates round-bottom Plates at a 1:2 DC:T cell ratio unless stated otherwise in the Figures.
# [2] = purified CD11c+ dendritic cells and OTII T cells
molecule,measurement,setting,value
mBSA: BSA modified with approximately 25 mannose residues per protein molecule [reference compound],OTII T cell proliferation after immunization with mBSA alone,"OTII T cells; mBSA 50 μg subcutaneous, 72 h",did not proliferate
same,inhibitory effect on (OVA)-3-1 presentation by dendritic cells,"[1]; (OVA)-3-1 25 μg mL^−1, inhibitor 100 μg mL^−1",Neither mBSA nor Lewis^x-BSA were inhibitory
B1,increase in OTII T cell number compared to OVA,"OTII T cells; 50 ng subcutaneous, 72 h",2 fold
same,T cells that had undergone cell division,OTII T cells; 72 h,58% and 55%
same,enhancement of T cell activation / proliferation relative to OVA in saline,OTII T cells; in vivo immunization,2 fold
same,capture and presentation by purified CD11c+ dendritic cells to OTII T cells compared to soluble OVA,[1]; parallel titration series,highly efficient; also recorded: efficiently present
same,decrease in presentation to OTII T cells as a result of TLR-mediated dendritic cell maturation,[1]; plus lipopolysaccharide (LPS),60%
same,presentation to T cells upon TLR-4 stimulation,[1]; plus lipopolysaccharide (LPS),remained better than targeting by unmodified OVA; also recorded: significantly decreased
same,low concentration at which capture and presentation was still highly efficient,[1]; [2],16 nM
B2,T cells that had undergone cell division,OTII T cells; 72 h,33%
same,decrease in presentation to OTII T cells as a result of TLR-mediated dendritic cell maturation,[1]; plus lipopolysaccharide (LPS),30%
same,excess of unmodified OVA required to obtain levels of T cell proliferation similar to (OVA)-3-1,[1]; [2],> 50 fold
